Results reported in publication PMC3001473 (PLoS ONE, 2010).

Biological target: LcrV (V antigen) of Yersinia pestis (Yersinia pestis, UniProt P0C7U7 1-326)
Assay: SPR; Biacore 3000; […]; HBS-P pH 7.4; […]
Conditions: both partners purified

LcrV (V antigen) of Yersinia pestis, sequence (P0C7U7 whole entry): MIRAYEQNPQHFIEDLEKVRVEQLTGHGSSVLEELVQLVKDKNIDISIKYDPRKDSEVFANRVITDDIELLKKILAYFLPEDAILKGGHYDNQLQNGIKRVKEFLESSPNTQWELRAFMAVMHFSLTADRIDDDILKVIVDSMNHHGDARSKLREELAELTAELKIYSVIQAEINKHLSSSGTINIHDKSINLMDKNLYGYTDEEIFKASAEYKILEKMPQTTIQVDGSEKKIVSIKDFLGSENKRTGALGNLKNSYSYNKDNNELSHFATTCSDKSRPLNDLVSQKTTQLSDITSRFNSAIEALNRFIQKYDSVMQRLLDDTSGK

B1: wild-type human interferon-gamma (ligand, UniProt P01579 24-166, looked up)
chain: QDPYVKEAENLKKYFNAGHSDVADNGTLFLGILKNWKEESDRKIMQSQIVSFYFKLFKNFKDDQSIQKSVETIKEDMNVKFFNSNKKKRDDFEKLTNYSVTDLNVQRKAIHELIQVMAELSPAAKTGKRKRSQMLFRGRRASQ
notes: also called IFNγ; IFNγwt
Kd: 32 nM
